From publication PMC6377692 (EJNMMI Research, 2019)
Bridge positions count the residues as written; N and C are the ends. Square brackets hold non-standard residues; d marks the D form. Peptide text beside a SMILES is read from it. * marks the point of attachment. DO3A(CH2CH2SO2CH2CH2) = O=C(O)CN1CCN(CCS(=O)(=O)CC*)CCN(CC(=O)O)CCN(CC(=O)O)CC1; Ala(4-thiazolyl) = N[C@@H](Cc1cscn1)C(=O)O

Tests used:
[1] = data not shown
[2] = human predicted dosimetry (OLINDA/EXM 1.1, from rat biodistribution)
Description: The dosimetry calculations were performed as described previously for [^68Ga]Ga-DO3A-VS-Cys^40-Exendin4 [11].
Briefly, animal-derived tissue uptake was normalized to that of human tissues (using tissue weights of whole body adult reference male and female phantoms). The normalized SUVs were then un-decay corrected to their respective time point to reflect the actual radiation burden in each tissue. The tissue residence times (MBq-h/MBq) were assessed by trapezoidal approximation of the un-decay-corrected human SUV biodistribution data. The tissue washout from the last time point (180 min) to infinity was estimated by a single mono-exponential fit.
The estimation of the absorbed dose was performed by the OLINDA/EXM 1.1 software (Vanderbilt University, USA) where the calculations were based on the adult reference male or female phantoms to obtain the intended absorbed dose estimate in humans (ICRP60). The organ-specific doses are reported as mGy/MBq (effective dose as mSv/MBq). The amount of MBq that can be safely administered annually (MBq/year) was calculated for each organ as well as the effective dose, by dividing the limiting dose (10 mSv/year for the effective dose, 150 mGy/year for all tissues except for the red marrow and uterus with 50 mGy/year) by the dose (mGy/MBq or mSv/MBq).

[3] = target: T1, human GCGR (HEK293 cells transfected with human GCGR) (Homo sapiens, UniProt P47871); experiment: in vitro autoradiography, blocking on sections of frozen pellet of GCGR-transfected cells; type: binding; conditions: n = 3
T1 construct: expressed in transfected cells; host or cells: HEK293
T1 sequence (P47871 26-477): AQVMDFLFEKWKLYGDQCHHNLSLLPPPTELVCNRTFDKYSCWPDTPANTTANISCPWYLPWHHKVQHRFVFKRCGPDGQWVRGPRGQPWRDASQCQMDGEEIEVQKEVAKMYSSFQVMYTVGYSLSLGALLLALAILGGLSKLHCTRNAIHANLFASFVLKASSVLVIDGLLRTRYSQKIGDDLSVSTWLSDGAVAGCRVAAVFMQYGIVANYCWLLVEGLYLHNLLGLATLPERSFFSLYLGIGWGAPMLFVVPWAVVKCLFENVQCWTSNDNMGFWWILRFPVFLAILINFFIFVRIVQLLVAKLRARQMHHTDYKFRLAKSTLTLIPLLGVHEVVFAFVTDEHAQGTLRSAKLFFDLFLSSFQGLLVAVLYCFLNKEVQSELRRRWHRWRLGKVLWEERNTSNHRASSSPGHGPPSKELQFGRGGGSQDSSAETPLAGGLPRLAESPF
Description: Sections were added in duplicates in each individual assay, and each experiment was repeated at least three times with different batches of radioligand, except for rat sections that were only performed in one assay.
After incubation, the sections were washed three times in 150 mL PBS. Sections were carefully dried at 37 °C and then exposed against a digital phosphorimager plate overnight together with a 10-μl droplet of radioactive reference (cross-calibrated against a gamma counter) on an absorbent paper attached to an object glass. The phosphor imager plates were scanned using a Cyclone Plus Phosphor imager (Perkin Elmer) at 600 dpi, and the resulting autoradiograms analyzed by ImageJ software (NIH, Bethesda). Pixel values in counts/mm^2 were converted to Bq/mm^2 by the included reference. Bq/mm^2 was further converted to fmol/mm^2 by the known specific radioactivity (fmol/Bq) of each batch of radiopharmaceutical.

[4] = extrapolated from rat biodistribution

## CC[C@H](C)[C@H](NC(=O)[C@H](Cc1ccccc1)NC(=O)[C@H](CCC(=O)O)NC(=O)[C@@H]1CCCCNC(=O)CC[C@H](NC(=O)[C@H](CC(=O)O)NC(=O)[C@H](CC(C)C)NC(=O)[C@H](CCC(N)=O)NC(=O)[C@H](CCCCN)NC(=O)[C@H](CO)NC(=O)[C@H](Cc2ccc(O)cc2)NC(=O)[C@H](CC(=O)O)NC(=O)[C@H](CO)NC(=O)[C@@H](NC(=O)[C@H](Cc2ccccc2)NC(=O)[C@@H](NC(=O)CNC(=O)[C@H](CCC(N)=O)NC(=O)[C@@H](CO)NC(=O)[C@@H](N)Cc2cscn2)[C@@H](C)O)[C@@H](C)O)C(=O)N[C@@H](CCC(N)=O)C(=O)N[C@@H](CCCNC(=N)N)C(=O)N[C@@H](C)C(=O)N1)C(=O)N[C@@H](CCC(=O)O)C(=O)N[C@@H](Cc1c[nH]c2ccccc12)C(=O)N[C@@H](CC(C)C)C(=O)N[C@@H](CC(C)C)C(=O)N[C@@H](C)C(=O)N[C@H](C(=O)NCC(=O)N1CCC[C@H]1C(=O)N[C@@H](CCC(=O)O)C(=O)N[C@@H](CO)C(=O)NCC(=O)N[C@@H](C)C(=O)N1CCC[C@H]1C(=O)N1CCC[C@H]1C(=O)N1CCC[C@H]1C(=O)N[C@@H](CO)C(=O)N[C@@H](CSCCS(=O)(=O)CCN1CCN(CC(=O)O)CCN(CC(=O)O)CCN(CC(=O)O)CC1)C(N)=O)[C@@H](C)O [[^68Ga]Ga-DO3A-S01-GCG, metal not drawn] (H-[Ala(4-thiazolyl)][dS]QGTFTSDYSKQLDEQRAKEFIEWLLATGPESGAPPPSC(DO3A(CH2CH2SO2CH2CH2))-NH2; lactam 16-20)
[1]
  exposure: 1570 ng·h/mL
  plasma t½: 15 min
[2]; [4]
  human predicted absorbed dose, kidneys: 0.53 mGy/MBq
  human predicted whole body effective dose: 20.2 μSv/MBq
[2]; limit 10 mSv/year
  calculated maximal annual dosing, limited by whole body effective dose: 495 MBq
[2]; limit 50 mGy/year
  calculated maximal annual dosing, by bone marrow absorbed dose: > 2000 MBq
[2]; limit 150 mGy/year
  calculated maximal annual dosing, limited by kidney dose: 278 MBq
[3]; 10 μM GCG
  effect of co-incubation with GCG on binding to sections of GCGR-transfected cell pellet: completely abolished
[3]; 10 μM precursor
  effect of co-incubation with own precursor peptide on binding to sections of GCGR-transfected cell pellet: completely abolished
